The test system of data set [1] is HeLa Kyoto. Put plainly: solubility in G1/S (NP-40 vs SDS abundance) (log2 ratio); higher = more soluble. The conditions noted are these: cell cycle stage: G1/S.
Data set [2] has as its system HeLa Kyoto. Put plainly: solubility change mitosis vs G1/S (difference of NP-40 vs SDS log2 ratios) (log2 ratio difference); higher = more soluble in mitosis.
Data set [3] deals with HeLa Kyoto. Put plainly: thermal stability score vs G1/S (z-score of summed log2 fold changes over temperatures); higher = more thermally stable than in G1/S.
[4] abbreviates: cell cycle stage: early G1 (4.5 h after nocodazole release).
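For solubility change mitosis vs G1/S (difference of NP-40 vs SDS log2 ratios) in this document: synchronized HeLa Kyoto cells (double thymidine block for G1/S, nocodazole release for mitosis), protein amounts in NP-40 versus SDS lysates quantified by mass spectrometry, three biological replicates.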
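For solubility in G1/S (NP-40 vs SDS abundance) in this document: HeLa Kyoto cells arrested at G1/S by double thymidine block, proteins quantified by TMT10plex mass spectrometry in mild NP-40 versus SDS extracts, three biological replicates.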
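For thermal stability score vs G1/S (z-score of summed log2 fold changes over temperatures) in this document: synchronized HeLa Kyoto cells, proteins quantified by TMT10plex mass spectrometry, three biological replicates, mitosis taken 0.5 h after nocodazole release, G1/S directly after double thymidine block.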

Chain of NPTN (chain, as listed by the source): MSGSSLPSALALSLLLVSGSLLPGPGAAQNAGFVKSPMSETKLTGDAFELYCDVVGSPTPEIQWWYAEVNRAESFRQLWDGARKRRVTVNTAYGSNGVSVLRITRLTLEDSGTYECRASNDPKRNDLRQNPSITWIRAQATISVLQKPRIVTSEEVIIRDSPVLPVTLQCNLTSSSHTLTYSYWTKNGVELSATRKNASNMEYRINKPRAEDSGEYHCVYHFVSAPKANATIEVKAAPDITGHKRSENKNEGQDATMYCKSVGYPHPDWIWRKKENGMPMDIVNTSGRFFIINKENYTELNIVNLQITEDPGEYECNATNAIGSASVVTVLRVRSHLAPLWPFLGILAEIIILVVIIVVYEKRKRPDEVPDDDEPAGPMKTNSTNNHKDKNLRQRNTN

Turning to “MNKGWLELESDPGLFTLLVEDFGVKGVQVEEIYDLQSKCQGPVYGFIFLFKWIEERRSRRKVSTLVDDTSVIDDDIVNNMFFAHQLIPNSCATHALLSVLLNCSSVDLGPTLSRMKDFTKGFSPESKGYAIGNAPELAKAHNSHARPEPRHLPEKQNGLSAVRTMEAFHFVSYVPITGRLFELDGLKVYPIDHGPWGEDEEWTDKARRVIMERIGLATAGEPYHDIRFNLMAVVPDRRIKYEARLHVLKVNRQTVLEALQQLIRVTQPELIQTHKSQESQLPEESKSASNKSPLVLEANRAPAASEGNHTDGAEEAAGSCAQAPSHSPPNKPKLVVKPPGSSLNGVHPNPTPIVQRLPAFLDNHNYAKSPMQEEEDLAAGVGRSRVPVRPPQQYSDDEDDYEDDEEDDVQNTNSALRYKGKGTGKPGALSGSADGQLSVLQPNTINVLAEKLKESQKDLSIPLSIKTSSGAGSPAVAVPTHSQPSPTPSNESTDTASEIGSAFNSPLRSPIRSANPTRPSSPVTSHISKVLFGEDDSLLRVDCIRYNRAVRDLGPVISTGLLHLAEDGVLSPLALTEGGKGSSPSIRPIQGSQGSSSPVEKEVVEATDSREKTGMVRPGEPLSGEKYSPKELLALLKCVEAEIANYEACLKEEVEKRKKFKIDDQRRTHNYDEFICTFISMLAQEGMLANLVEQNISVRRRQGVSIGRLHKQRKPDRRKRSRPYKAKRQ [BAP1]”, the “solubility in G1/S (log2)” value in data set [1] is 0.152. The “solubility change mitosis (log2)” value in data set [2] was -0.138. Also, the thermal stability score in data set [3] (setting [4]) stood at 0.51; in data set [3] (cell cycle stage: mitosis), 0.853.
For the substance “MEEGAPRQPGPSQWPPEDEKEVIRRAIQKELKIKEGVENLRRVATDRRHLGHVQQLLRSSNRRLEQLHGELRELHARILLPGPGPGPAEPVASGPRPWAEQLRARHLEALRRQLHVELKVKQGAENMTHTCASGTPKERKLLAAAQQMLRDSQLKVALLRMKISSLEASGSPEPGPELLAEELQHRLHVEAAVAEGAKNVVKLLSSRRTQDRKALAEAQAQLQESSQKLDLLRLALEQLLEQLPPAHPLRSRVTRELRAAVPGYPQPSGTPVKPTALTGTLQVRLLGCEQLLTAVPGRSPAAALASSPSEGWLRTKAKHQRGRGELASEVLAVLKVDNRVVGQTGWGQVAEQSWDQTFVIPLERARELEIGVHWRDWRQLCGVAFLRLEDFLDNACHQLSLSLVPQGLLFAQVTFCDPVIERRPRLQRQERIFSKRRGQDFLRASQMNLGMAAWGRLVMNLLPPCSSPSTISPPKGCPRTPTTLREASDPATPSNFLPKKTPLGEEMTPPPKPPRLYLPQEPTSEETPRTKRPHMEPRTRRGPSPPASPTRKPPRLQDFRCLAVLGRGHFGKVLLVQFKGTGKYYAIKALKKQEVLSRDEIESLYCEKRILEAVGCTGHPFLLSLLACFQTSSHACFVTEFVPGGDLMMQIHEDVFPEPQARFYVACVVLGLQFLHEKKIIYRDLKLDNLLLDAQGFLKIADFGLCKEGIGFGDRTSTFCGTPEFLAPEVLTQEAYTRAVDWWGLGVLLYEMLVGECPFPGDTEEEVFDCIVNMDAPYPGFLSVQGLEFIQKLLQKCPEKRLGAGEQDAEEIKVQPFFRTTNWQALLARTIQPPFVPTLCGPADLRYFEGEFTGLPPALTPPAPHSLLTARQQAAFRDFDFVSERFLEP [PKN3]”, in data set [1], the “solubility in G1/S (log2)” value is -0.177. For the same substance, in data set [2], the “solubility change mitosis (log2)” value is 0.0781. Moreover, the thermal stability score in data set [3] (setting [4]) was -0.36; in data set [3] (cell cycle stage: mitosis), -0.411.
The corresponding values for “MDAWVRFSAQSQARERLCRAAQYACSLLGHALQRHGASPELQKQIRQLESHLSLGRKLLRLGNSADALESAKRAVHLSDVVLRFCITVSHLNRALYFACDNVLWAGKSGLAPRVDQEKWAQRSFRYYLFSLIMNLSRDAYEIRLLMEQESSACSRRLKGSGGGVPGGSETGGLGGPGTPGGGLPQLALKLRLQVLLLARVLRGHPPLLLDVVRNACDLFIPLDKLGLWRCGPGIVGLCGLVSSILSILTLIYPWLRLKP [PEX11B]” are -0.779, 0.18, 0.106 and 0.142.
The like results for “MTQPVPRLSVPAALALGSAALGAAFATGLFLGRRCPPWRGRREQCLLPPEDSRLWQYLLSRSMREHPALRSLRLLTLEQPQGDSMMTCEQAQLLANLARLIQAKKALDLGTFTGYSALALALALPADGRVVTCEVDAQPPELGRPLWRQAEAEHKIDLRLKPALETLDELLAAGEAGTFDVAVVDADKENCSAYYERCLQLLRPGGILAVLRVLWRGKVLQPPKGDVAAECVRNLNERIRRDVRVYISLLPLGDGLTLAFKI [COMTD1]” were, in that order, 0.16, 0.00811, -0.487 and 0.44.
The like results for NPTN were, in that order, 0.36, 0.245, -1.2 and -2.14.
Take “MDGLQASAGPLRRGRPKRRRKPQPHSGSVLALPLRSRKIRKQLRSVVSRMAALRTQTLPSENSEESRVESTADDLGDALPGGAAVAAVPDAARREPYGHLGPAELLEASPAARSLQTPSARLVPASAPPARLVEVPAAPVRVVETSALLCTAQHLAAVQSSGAPATASGPQVDNTGGEPAWDSPLRRVLAELNRIPSSRRRAARLFEWLIAPMPPDHFYRRLWEREAVLVRRQDHTYYQGLFSTADLDSMLRNEEVQFGQHLDAARYINGRRETLNPPGRALPAAAWSLYQAGCSLRLLCPQAFSTTVWQFLAVLQEQFGSMAGSNVYLTPPNSQGFAPHYDDIEAFVLQLEGRKLWRVYRPRVPTEELALTSSPNFSQDDLGEPVLQTVLEPGDLLYFPRGFIHQAECQDGVHSLHLTLSTYQRNTWGDFLEAILPLAVQAAMEENVEFRRGLPRDFMDYMGAQHSDSKDPRRTAFMEKVRVLVARLGHFAPVDAVADQRAKDFIHDSLPPVLTDRERALSVYGLPIRWEAGEPVNVGAQLTTETEVHMLQDGIARLVGEGGHLFLYYTVENSRVYHLEEPKCLEIYPQQADAMELLLGSYPEFVRVGDLPCDSVEDQLSLATTLYDKGLLLTKMPLALN [NO66]”: the “solubility in G1/S (log2)” value in data set [1] is -0.879. Besides, the “solubility change mitosis (log2)” value in data set [2] was found to be 0.755. Moreover, the thermal stability score was -0.151 in data set [3] (setting [4]) and 0.066 in data set [3] (cell cycle stage: mitosis).
The like results for “MAPSLWKGLVGIGLFALAHAAFSAAQHRSYMRLTEKEDESLPIDIVLQTLLAFAVTCYGIVHIAGEFKDMDATSELKNKTFDTLRNHPSFYVFNHRGRVLFRPSDTANSSNQDALSSNTSLKLRKLESLRR [MMGT1]” were, in that order, -0.125, -0.109, -0.869 and -1.57.
The corresponding values for “MALVSADSRIAELLTELHQLIKQTQEERSRSEHNLVNIQKTHERMQTENKISPYYRTKLRGLYTTAKADAEAECNILRKALDKIAEIKSLLEERRIAAKIAGLYNDSEPPRKTMRRGVLMTLLQQSAMTLPLWIGKPGDKPPPLCGAIPASGDYVARPGDKVAARVKAVDGDEQWILAEVVSYSHATNKYEVDDIDEEGKERHTLSRRRVIPLPQWKANPETDPEALFQKEQLVLALYPQTTCFYRALIHAPPQRPQDDYSVLFEDTSYADGYSPPLNVAQRYVVACKEPKKK [SGF29]” are 0.435, 0.314, -0.0915 and -0.207.
The like results for “MSSLGASFVQIKFDDLQFFENCGGGSFGSVYRAKWISQDKEVAVKKLLKIEKEAEILSVLSHRNIIQFYGVILEPPNYGIVTEYASLGSLYDYINSNRSEEMDMDHIMTWATDVAKGMHYLHMEAPVKVIHRDLKSRNVVIAADGVLKICDFGASRFHNHTTHMSLVGTFPWMAPEVIQSLPVSETCDTYSYGVVLWEMLTREVPFKGLEGLQVAWLVVEKNERLTIPSSCPRSFAELLHQCWEADAKKRPSFKQIISILESMSNDTSLPDKCNSFLHNKAEWRCEIEATLERLKKLERDLSFKEQELKERERRLKMWEQKLTEQSNTPLLPSFEIGAWTEDDVYCWVQQLVRKGDSSAEMSVYASLFKENNITGKRLLLLEEEDLKDMGIVSKGHIIHFKSAIEKLTHDYINLFHFPPLIKDSGGEPEENEEKIVNLELVFGFHLKPGTGPQDCKWKMYMEMDGDEIAITYIKDVTFNTNLPDAEILKMTKPPFVMEKWIVGIAKSQTVECTVTYESDVRTPKSTKHVHSIQWSRTKPQDEVKAVQLAIQTLFTNSDGNPGSRSDSSADCQWLDTLRMRQIASNTSLQRSQSNPILGSPFFSHFDGQDSYAAAVRRPQVPIKYQQITPVNQSRSSSPTQYGLTKNFSSLHLNSRDSGFSSGNTDTSSERGRYSDRSRNKYGRGSISLNSSPRGRYSGKSQHSTPSRGRYPGKFYRVSQSALNPHQSPDFKRSPRDLHQPNTIPGMPLHPETDSRASEEDSKVSEGGWTKVEYRKKPHRPSPAKTNKERARGDHRGWRNF [ZAK]” were, in that order, -1.14, 0.649, -0.231 and -2.89.

Values taken from the supplement of paper PMC5998384.
